Reference: patent US20250282879A1 (CILAG GMBH INTERNATIONAL, published 2025)
Positions count from the first letter of the chain named. Numbers in names are those of the source. Where two headings read alike, the source gives them in different places.

Experiments:
[1] = biological target: T1, human IL-4R on cells (HEK-Blue IL-4/IL-13 cells, human PBMC, human whole blood) (human, UniProt P24394 26-825); experiment: cell-based or functional assay
[2] = biological target: T1, human IL-4R on cells (HEK-Blue …); experiment: cell-based or functional assay; remark: listed apart in the source
[3] = biological target: T1, human IL-4R on cells (HEK-Blue …); experiment: cell-based or functional assay; remark: listed apart in the source
[4] = biological target: T2, recombinant human IL-31 protein (Peprotech) (human, UniProt Q6EBC2 24-164); experiment: cell-based or functional assay
T2 sequence (looked up): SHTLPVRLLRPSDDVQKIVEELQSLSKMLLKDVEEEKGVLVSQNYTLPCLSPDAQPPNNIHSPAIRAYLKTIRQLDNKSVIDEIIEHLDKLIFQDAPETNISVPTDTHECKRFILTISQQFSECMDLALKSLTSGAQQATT

[5] = biological target: T1, human IL-4R on cells (HEK-Blue …); experiment: cell-based or functional assay; remark: listed apart in the source
[6] = biological target: T2, recombinant human IL-31 protein …; experiment: cell-based or functional assay; remark: listed apart in the source
[7] = biological target: recombinant cynomolgus monkey IL-31 (ECD with His Tag, Sino Biological) (cynomolgus monkey); experiment: cell-based or functional assay
[8] = biological target: T3, human IL-4R on transfected HEK293T cells (human, UniProt P24394 26-825); experiment: flow cytometry, transfected HEK293T cells
T3 construct: whole, on cells; also called human IL-4R-expressing HEK293T cells; not shown: V5 Tag fused to the N-terminus of the expression construct
From the text: (§1) To test binding of the Morrison-H and Morrison-L antibodies PRO2198, PRO2199, PRO2206 and PRO2207 to human or cynomolgus IL-4R-expressing HEK293T cells, HEK293T cells were transfected with human and cynomolgus IL-4R plasmids and mock plasmid using Lipofectamine3000. Binding of an antibody targeting V5 Tag, which is fused to the N-terminus of human and cynomolgus IL-4R expression constructs, would confirm successful expression of both targets and was thus used as a positive control for plasma membranous binding. The Morrison-H molecule PRO2077 was used as negative control for cynomolgus IL-4R binding since this molecule had not shown any cross-reactivity to cynomolgus IL-4R (see section 5.3.).
(§2) 50,000 transfected HEK293T cells per well were seeded in a 96-well plate. 5-fold serial dilutions of the Morrison-H and Morrison-L antibodies PRO2198, PRO2199, PRO2206 and PRO2207 and of the control molecule PRO2077, which is not cross-reactive to cynomolgus IL-4R, were added at concentrations ranging from 5,000 to 0.32 ng/ml to the plates and incubated for 60 min at 4° C. on a shaker. Supernatants were removed and detection reagent was added for flow cytometry analysis. The geometric mean of the APC fluorescence intensity of single cells was calculated.

[9] = biological target: T4, cynomolgus IL-4R on transfected HEK293T cells (cynomolgus monkey, UniProt A0A2K5V580 33-832); experiment: flow cytometry, transfected HEK293T cells
T4 construct: whole, on cells; also called cynomolgus IL-4R-expressing HEK293T cells; not shown: V5 Tag fused to the N-terminus of the expression construct
From the text: as §1, §2

[10] = biological target: T5, recombinant human IL-4R protein (ECD with His Tag, Sino Biological) (human, UniProt P24394 26-232); experiment: SPR, Morrison captured via anti-human IgG-Fc, IL-4R ECD-His analyte
T5 construct: extracellular domain; bought; also called human IL-4R ECD; not shown: His Tag
Method: (§3) Binding kinetics (including affinity) of the bispecific Morrison-H (PRO2198, PRO2199) and Morrison-L (PRO2206, PRO2207) molecules to recombinant human IL-4R protein (ECD with His Tag, Sino Biological) were determined by SPR analysis on a T200 device (Biacore, Cytiva). In this SPR experiment, Morrison molecules were captured via an anti-human IgG-Fc antibody (Human Antibody Capture Kit; Biacore, Cytiva) covalently immobilized to a carboxylmethylated dextran surface (CM5 sensorchip; Biacore, Cytiva) and a titration series of human IL-4R ECD was injected as analyte. After each analyte injection cycle, the sensor chip was regenerated (MgCl₂), and new Morrison antibody was subsequently re-captured. […] The apparent dissociation (kd) and association (kₐ) rate constants and the apparent dissociation equilibrium constant (KD) were calculated with the Biacore analysis software (Biacore Evaluation software Version 3.2, Cytiva) using one-to-one Langmuir binding model and quality of the fits was monitored based on Chi2 and U-value, which are measures for the quality of the curve fitting. The binding level was calculated as the maximum stability binding achieved normalized to the theoretical Rmax. Cross-reactivity to cynomolgus monkey IL-4R was measured using the same setup as for the analysis of human IL-4R kinetics, with the difference that recombinant cynomolgus monkey IL-4R (ECD with His-tag, Acro Biosystems) protein was used as analyte instead of human IL-4R.

[11] = biological target: T6, recombinant cynomolgus monkey IL-4R (ECD with His-tag, Acro Biosystems) (cynomolgus monkey, UniProt A0A2K5V556 26-232); experiment: as above
T6 construct: bought; also called cynomolgus IL-4R
Method: as §3

[12] = biological target: T1, human IL-4R on cells (HEK-Blue …); experiment: cell-based or functional assay; remark: listed apart in the source
Human IL-4R-Fc [13] = biological target: T7, Human IL-4R-Fc (human, UniProt P24394 26-232); experiment: SPR, hIL-4R-Fc captured, scFv analyte
T7 construct: also called human IL-4R (scFv SPR, capture setup); not shown: Fc part

marmoset IL-4R ECD = biological target: T8, marmoset IL-4R ECD (marmoset (Callithrix jacchus), UniProt Q0PIT7 26-232); experiment: SPR, direct setup, marmoset IL-4R ECD immobilized
T8 construct: immobilized directly on the sensor chip; also called marmoset monkey IL-4R

[14] = biological target: T9, human IL-4R (form not stated) (human, UniProt P24394 26-232, limits assumed); experiment: competition ELISA, hIL-4/IL-4R
T9 construct: whole entry named; also called hIL-4R
Method: Potency of the optimized anti-IL-4R scFvs PRO1898 and PRO1899 scFvs was determined using a competitive ELISA. The potency of each scFv to inhibit the interaction between human IL-4 and human IL-4R was assessed by ELISA as described in section 1.2.2. Similarly, to the stat-6 reporter gene assay, individual IC₅₀ values on each plate were calibrated against the IC₅₀ of the reference molecule dupilumab.

Human IL-4R-Fc [15] = biological target: T7, Human IL-4R-Fc; experiment: SPR, hIL-4R-Fc captured, scFv analyte; remark: listed apart in the source
Method: (§4) Affinity of the optimized anti-IL-4R scFvs PRO1898 and PRO1899 to human IL-4R was determined by SPR analysis on a T200 device (Biacore, GE Healthcare), as described above in section 1.2.2. The scFvs were measured using a dose response multi-cycle kinetic assay with seven analyte concentrations ranging from 0.12 to 90 nM diluted in running buffer. Obtained sensorgrams were fitted using a 1:1 binding model.

cynomolgus IL-4R-Fc = biological target: T10, cynomolgus IL-4R-Fc (cynomolgus monkey (Macaca fascicularis), UniProt A0A2K5V580 33-239); experiment: SPR, capture setup, cynomolgus IL-4R-Fc captured
T10 construct: also called cynomolgus IL-4R capture setup; not shown: Fc part
Method: as §4
Affinity of the optimized anti-IL-4R scFvs PRO1898 and PRO1899 to cynomolgus IL-4R was measured using the same setup as for the analysis of human IL-4R affinities, with the difference that cynomolgus IL-4R-Fc was captured instead of human IL-4R-Fc, as described above in section 1.2.2.

T6 sequence (A0A2K5V556 entry or part of it limits assumed): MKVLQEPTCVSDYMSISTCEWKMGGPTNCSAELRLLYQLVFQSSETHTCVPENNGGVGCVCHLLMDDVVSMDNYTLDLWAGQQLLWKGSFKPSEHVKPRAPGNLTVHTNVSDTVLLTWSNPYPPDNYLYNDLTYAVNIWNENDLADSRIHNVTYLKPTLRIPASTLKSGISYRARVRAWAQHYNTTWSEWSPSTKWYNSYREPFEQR
T8 sequence (Q0PIT7 entry or part of it limits assumed): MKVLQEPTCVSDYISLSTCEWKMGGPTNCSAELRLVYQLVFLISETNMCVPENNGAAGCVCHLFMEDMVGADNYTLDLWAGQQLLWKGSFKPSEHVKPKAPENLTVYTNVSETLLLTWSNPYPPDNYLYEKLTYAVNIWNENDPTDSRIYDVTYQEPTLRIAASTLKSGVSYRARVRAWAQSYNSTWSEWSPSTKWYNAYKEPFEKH
T4 sequence (A0A2K5V580 entry or part of it): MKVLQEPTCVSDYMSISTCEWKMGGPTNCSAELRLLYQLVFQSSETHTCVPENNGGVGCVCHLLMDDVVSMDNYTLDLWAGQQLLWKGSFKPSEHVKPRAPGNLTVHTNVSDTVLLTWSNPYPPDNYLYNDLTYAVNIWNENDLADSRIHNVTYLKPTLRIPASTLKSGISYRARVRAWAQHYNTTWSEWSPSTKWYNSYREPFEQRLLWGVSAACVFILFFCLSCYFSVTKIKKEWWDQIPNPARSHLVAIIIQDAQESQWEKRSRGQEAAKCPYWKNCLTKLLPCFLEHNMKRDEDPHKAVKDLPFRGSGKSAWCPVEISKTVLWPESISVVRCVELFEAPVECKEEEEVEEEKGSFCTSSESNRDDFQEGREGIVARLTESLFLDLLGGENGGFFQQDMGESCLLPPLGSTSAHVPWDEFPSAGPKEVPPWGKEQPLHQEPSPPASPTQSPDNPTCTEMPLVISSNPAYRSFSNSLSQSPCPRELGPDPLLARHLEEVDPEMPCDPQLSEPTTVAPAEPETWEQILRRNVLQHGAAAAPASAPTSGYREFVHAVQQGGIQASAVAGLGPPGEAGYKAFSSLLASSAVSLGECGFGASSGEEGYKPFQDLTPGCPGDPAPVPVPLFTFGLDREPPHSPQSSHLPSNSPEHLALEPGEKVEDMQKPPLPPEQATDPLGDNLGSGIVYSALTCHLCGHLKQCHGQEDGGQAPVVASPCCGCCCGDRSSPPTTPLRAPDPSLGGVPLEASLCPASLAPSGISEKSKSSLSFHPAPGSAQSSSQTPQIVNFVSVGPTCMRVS

B1: PRO2199 (bispecific antibody, human IgG4 S228P, kappa)
light: DIQMTQSPSSLSASVGDRVTITCQASEDIESYLAWYQQKPGKAPKLLIYRASTLAYGVPSRFSGSGSGTDFTLTISSLQPEDFATYYCLGSSYSTGSNIFGQGTKVEIKRTVAAPSVFIFPPSDEQLKSGTASVVCLLNNFYPREAKVQWKVDNALQSGNSQESVTEQDSKDSTYSLSSTLTLSKADYEKHKVYACEVTHQGLSSPVTKSFNRGEC
heavy: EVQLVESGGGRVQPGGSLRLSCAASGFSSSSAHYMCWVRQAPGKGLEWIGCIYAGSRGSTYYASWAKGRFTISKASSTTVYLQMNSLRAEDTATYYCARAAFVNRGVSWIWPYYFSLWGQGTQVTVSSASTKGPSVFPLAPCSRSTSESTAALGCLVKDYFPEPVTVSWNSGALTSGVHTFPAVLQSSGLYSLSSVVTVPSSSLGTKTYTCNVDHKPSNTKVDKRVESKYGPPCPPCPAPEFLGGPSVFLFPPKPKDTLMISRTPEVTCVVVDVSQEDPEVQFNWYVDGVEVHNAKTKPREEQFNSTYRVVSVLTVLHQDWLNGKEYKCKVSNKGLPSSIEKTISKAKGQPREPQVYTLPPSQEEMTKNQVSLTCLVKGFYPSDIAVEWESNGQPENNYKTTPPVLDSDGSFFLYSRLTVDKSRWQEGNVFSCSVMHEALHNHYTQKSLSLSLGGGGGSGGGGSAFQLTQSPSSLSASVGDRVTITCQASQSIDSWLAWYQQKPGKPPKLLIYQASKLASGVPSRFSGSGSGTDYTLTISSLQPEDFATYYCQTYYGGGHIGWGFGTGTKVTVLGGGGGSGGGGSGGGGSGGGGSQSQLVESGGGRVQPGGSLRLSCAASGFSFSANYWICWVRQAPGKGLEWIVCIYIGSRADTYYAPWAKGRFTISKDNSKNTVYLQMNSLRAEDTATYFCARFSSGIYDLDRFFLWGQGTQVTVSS
notes: IgG4 (S228P) Morrison-H; also called Morrison-H; MorrH
In the case of B1, the “IC50, IL-4-induced TARC secretion in human whole blood” value [1] is reported as less than 0.5 nM, the “Mean IC50, human IL-4-induced signaling, stat-6 reporter gene assay” value [2] is reported as 0.0115 nM and the “IC50 (single analysis), human IL-13-induced signaling, stat-6 reporter gene assay” value [3] is reported as 0.0113 nM. For the same binder, the “Mean IC50, human IL-31-induced signaling, IL-31RA/OSMR dimerization assay” value [4] was 0.142 nM, the “IC50, IL-4-induced CD23 expression, memory B cells” value [5] was 2.53 nM and the “IC50, IL-4-induced CD23 expression, monocytes (blood donor 1)” value [5] was 0.0697 nM. The “IC50, IL-4-induced CD23 expression, naive B cells” value [5] was 1.1 nM, the “IC50 (read off the curve), human IL-31-induced IL-31RA/OSMR dimerization, with an excess of IL-4R extracellular domain in the medium” value [6] was roughly 0.1 nM and the “IC50, cynomolgus IL-31-induced IL-31RA/OSMR dimerization (RLU) [table under the graph]” value [7] was 1.21 nM. It also gave an EC50 [8] of 0.85 nM, an EC50 [9] of 1.78 nM and a Kd [10] of 0.197 nM. It also gave a koff [10] of 5.76e-05 s⁻¹, a kon [10] of 293000 M⁻¹ s⁻¹ and a Kd [11] of 0.0351 nM. It also gave a koff [11] of 3.44e-05 s⁻¹ and a kon [11] of 980000 M⁻¹ s⁻¹.

B2: PRO1535 (scFv)
chain: DIQMTQSPSSLSASVGDRVTITCQASEDIESYLAWYQQKPGKPPKLLIYRASTLAYGVPSRFSGSGSGTDFTLTISSLQPEDFATYYCLGSSYSTGSNIFGTGTKVTVLGGGGGSGGGGSGGGGSGGGGSESQLVESGGGLVQPGGSLRLSCAASGFSSSSAHYMCWVRQAPGKGLEWIACIYAGSRGSTYYASWAKGRFTISKDNSKNTVYLQMNSLRAEDTAVYFCARAAFVNRGVSWIWPYYFSLWGQGTLVTVSS
B2 was tested, and the “IC50, neutralization of hIL-4-induced signaling, stat-6 reporter gene assay” value [12] was 1.15 ng/mL, the “IC50, neutralization of hIL-13-induced signaling, stat-6 reporter gene assay” value [12] was 2.3 ng/mL and the Kd (Human IL-4R-Fc [13]) was 0.0199 nM. For the same binder, the koff (Human IL-4R-Fc [13]) was 5.42e-05 s⁻¹, the kon (Human IL-4R-Fc [13]) was 2.72e+06 M⁻¹ s⁻¹ and the Kd (marmoset IL-4R ECD) was 0.787 nM. It also gave a koff (marmoset IL-4R ECD) of 0.00254 s⁻¹ and a kon (marmoset IL-4R ECD) of 3.23e+06 M⁻¹ s⁻¹.

B3: PRO1898 (scFv, V domains shown)
VH: EVQLVESGGGLVQPGGSLRLSCAASGFSSSSAHYMCWVRQAPGKGLEWIGCIYAGSRGSTYYASWAKGRFTISRDNSKNTVYLQMNSLRAEDTAVYYCARAAFVNRGVSWIWPYYFSLWGQGTLVTVSS
VL: DIQMTQSPSSLSARVGDRVTITCQASEDIESYLAWYQQKPGKAPKLLIYRASTLAYGVPSRFSGSGSGRDFTLTISSLQPEDFATYYCLGSSYSTGSNIFGTGTKVTVLG
notes: scFv; VL entry ends with LCDR3 (no FR4); also called 44-34-C10-sc08
In the case of B3, the IC50 [14] is reported as 3.41 ng/mL, the Kd (Human IL-4R-Fc [15]) is reported as 0.00791 nM and the koff (Human IL-4R-Fc [15]) is reported as 1.7e-05 s⁻¹. The kon (Human IL-4R-Fc [15]) was 2.15e+06 M⁻¹ s⁻¹, the Kd (cynomolgus IL-4R-Fc) was 0.0908 nM and the koff (cynomolgus IL-4R-Fc) was 0.000109 s⁻¹. It also gave a kon (cynomolgus IL-4R-Fc) of 1.2e+06 M⁻¹ s⁻¹.

B4: PRO1899 (scFv, V domains shown)
VH: EVQLVESGGGRVQPGGSLRLSCAASGFSSSSAHYMCWVRQAPGKGLEWIGCIYAGSRGSTYYASWAKGRFTISKASSTTVYLQMNSLRAEDTATYYCARAAFVNRGVSWIWPYYFSLWGQGTQVTVSS
VL: B3 VL with R14S, R69T
notes: scFv; VL entry ends with LCDR3 (no FR4); also called 44-34-C10-sc09
Binder B4 has an IC50 [14] of 2.98 ng/mL, a Kd (Human IL-4R-Fc [15]) of 0.00692 nM and a koff (Human IL-4R-Fc [15]) of 2.04e-05 s⁻¹. The kon (Human IL-4R-Fc [15]) was 2.95e+06 M⁻¹ s⁻¹, the Kd (cynomolgus IL-4R-Fc) was 0.012 nM and the koff (cynomolgus IL-4R-Fc) was 0.00014 s⁻¹. For the same binder, the kon (cynomolgus IL-4R-Fc) was 1.1e+07 M⁻¹ s⁻¹.
